Laboratory results: the supplement of paper PMC10567573

B1: PTPLAD1 (parent)
chain: YSFYMLTCIDMDWKVLTWLRYTLW
B2: MATN2 (parent)
chain: FSLKTFKRKSEVERAVKRMRHLST

Variants of: B1
Assay: protein stability index of a GFP-peptide fusion (GPS, HEK-293T) (PSI 1-6); higher = more stable
Settings: c terminus: a fixed tail appended
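Also: lentivirally expressed fusions sorted by FACS into six bins by GFP to DsRed ratio, PSI derived from sequencing read proportions per bin multiplied by bin number.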

Variant | protein stability index
YSFIMLTCIDMDWKVLTWLRYTLW [Y4I] | 3.63
YSFFMLTCIDMDWKVLTWLRYTLW [Y4F] | 2.53
YSFLMLTCIDMDWKVLTWLRYTLW [Y4L] | 3.13
YSFHMLTCIDMDWKVLTWLRYTLW [Y4H] | 3.11
YSFDMLTCIDMDWKVLTWLRYTLW [Y4D] | 1.99
YSFCMLTCIDMDWKVLTWLRYTLW [Y4C] | 4.29
YSFGMLTCIDMDWKVLTWLRYTLW [Y4G] | 2.99
YSFEMLTCIDMDWKVLTWLRYTLW [Y4E] | 1.77
YSFKMLTCIDMDWKVLTWLRYTLW [Y4K] | 2.05
YSFAMLTCIDMDWKVLTWLRYTLW [Y4A] | 2.33
YSNYMLTCIDMDWKVLTWLRYTLW [F3N] | 1.46
YSIYMLTCIDMDWKVLTWLRYTLW [F3I] | 3.74
YSLYMLTCIDMDWKVLTWLRYTLW [F3L] | 1.03
YSEYMLTCIDMDWKVLTWLRYTLW [F3E] | 2.31
YSKYMLTCIDMDWKVLTWLRYTLW [F3K] | 1.69
YSAYMLTCIDMDWKVLTWLRYTLW [F3A] | 2.37
YSMYMLTCIDMDWKVLTWLRYTLW [F3M] | 3.14
YSSYMLTCIDMDWKVLTWLRYTLW [F3S] | 2.61
YSWYMLTCIDMDWKVLTWLRYTLW [F3W] | 2.37

Variant | protein stability index
YSYYMLTCIDMDWKVLTWLRYTLW [F3Y] | 3.36
YSDYMLTCIDMDWKVLTWLRYTLW [F3D] | 2
YSGYMLTCIDMDWKVLTWLRYTLW [F3G] | 2.24
YSPYMLTCIDMDWKVLTWLRYTLW [F3P] | 2.51
YSHYMLTCIDMDWKVLTWLRYTLW [F3H] | 1.93
YSCYMLTCIDMDWKVLTWLRYTLW [F3C] | 2.18
YSQYMLTCIDMDWKVLTWLRYTLW [F3Q] | 3.31
YSTYMLTCIDMDWKVLTWLRYTLW [F3T] | 1.68
YCFYMLTCIDMDWKVLTWLRYTLW [S2C] | 1.93
YHFYMLTCIDMDWKVLTWLRYTLW [S2H] | 2.1
YRFYMLTCIDMDWKVLTWLRYTLW [S2R] | 2.84
YIFYMLTCIDMDWKVLTWLRYTLW [S2I] | 2.41
YYFYMLTCIDMDWKVLTWLRYTLW [S2Y] | 2.99
YAFYMLTCIDMDWKVLTWLRYTLW [S2A] | 2.3
YWFYMLTCIDMDWKVLTWLRYTLW [S2W] | 2.13
YQFYMLTCIDMDWKVLTWLRYTLW [S2Q] | 1.97
YDFYMLTCIDMDWKVLTWLRYTLW [S2D] | 1.35
YKFYMLTCIDMDWKVLTWLRYTLW [S2K] | 5.08
YPFYMLTCIDMDWKVLTWLRYTLW [S2P] | 2.62

Variant | protein stability index
YVFYMLTCIDMDWKVLTWLRYTLW [S2V] | 1.58
YMFYMLTCIDMDWKVLTWLRYTLW [S2M] | 2.26
YTFYMLTCIDMDWKVLTWLRYTLW [S2T] | 1.56
ASFYMLTCIDMDWKVLTWLRYTLW [Y1A] | 2.82
NSFYMLTCIDMDWKVLTWLRYTLW [Y1N] | 2.57
WSFYMLTCIDMDWKVLTWLRYTLW [Y1W] | 3.32
MSFYMLTCIDMDWKVLTWLRYTLW [Y1M] | 3.57
KSFYMLTCIDMDWKVLTWLRYTLW [Y1K] | 2.1
TSFYMLTCIDMDWKVLTWLRYTLW [Y1T] | 2.2
ISFYMLTCIDMDWKVLTWLRYTLW [Y1I] | 3.26
SSFYMLTCIDMDWKVLTWLRYTLW [Y1S] | 2.07
PSFYMLTCIDMDWKVLTWLRYTLW [Y1P] | 1.7
RSFYMLTCIDMDWKVLTWLRYTLW [Y1R] | 1.4
HSFYMLTCIDMDWKVLTWLRYTLW [Y1H] | 2.28
LSFYMLTCIDMDWKVLTWLRYTLW [Y1L] | 1.47
QSFYMLTCIDMDWKVLTWLRYTLW [Y1Q] | 3.61
VSFYMLTCIDMDWKVLTWLRYTLW [Y1V] | 4.18
CSFYMLTCIDMDWKVLTWLRYTLW [Y1C] | 2.62
DSFYMLTCIDMDWKVLTWLRYTLW [Y1D] | 1.5

Variants of: B2
Assay: as above
Settings: c terminus: a fixed tail appended

Variant | protein stability index
FSLKTFKRKSEVERAVKRMRHLDT [S23D] | 3.11
FSLKTFKRKSEVERAVKRMRHLPT [S23P] | 2.25
FSLKTFKRKSEVERAVKRMRHLIT [S23I] | 2.8
FSLKTFKRKSEVERAVKRMRHLTT [S23T] | 1.89
FSLKTFKRKSEVERAVKRMRHLRT [S23R] | 2.35
FSLKTFKRKSEVERAVKRMRHLYT [S23Y] | 2.3
FSLKTFKRKSEVERAVKRMRHLKT [S23K] | 2.64
FSLKTFKRKSEVERAVKRMRHLGT [S23G] | 2.1
FSLKTFKRKSEVERAVKRMRHLWT [S23W] | 1.72
FSLKTFKRKSEVERAVKRMRHLVT [S23V] | 1.28
FSLKTFKRKSEVERAVKRMRHLCT [S23C] | 1.42
FSLKTFKRKSEVERAVKRMRHLAT [S23A] | 1.81
FSLKTFKRKSEVERAVKRMRHLET [S23E] | 2
FSLKTFKRKSEVERAVKRMRHLNT [S23N] | 2.53
FSLKTFKRKSEVERAVKRMRHLSN [T24N] | 3
FSLKTFKRKSEVERAVKRMRHLSD [T24D] | 2.44
FSLKTFKRKSEVERAVKRMRHLSG [T24G] | 3.01
FSLKTFKRKSEVERAVKRMRHLSW [T24W] | 1.55
FSLKTFKRKSEVERAVKRMRHLSP [T24P] | 2.35

Variant | protein stability index
FSLKTFKRKSEVERAVKRMRHLSA [T24A] | 2.72
FSLKTFKRKSEVERAVKRMRHLSK [T24K] | 3.38
FSLKTFKRKSEVERAVKRMRHLSI [T24I] | 2.08
FSLKTFKRKSEVERAVKRMRHLSL [T24L] | 2.4
FSLKTFKRKSEVERAVKRMRHLSY [T24Y] | 2.23
FSLKTFKRKSEVERAVKRMRHLSE [T24E] | 2.67
FSLKTFKRKSEVERAVKRMRHLSQ [T24Q] | 1.55
FSLKTFKRKSEVERAVKRMRHLSH [T24H] | 2.57
FSLKTFKRKSEVERAVKRMRHLSS [T24S] | 2.53
FSLKTFKRKSEVERAVKRMRHLSV [T24V] | 1.62
FSLKTFKRKSEVERAVKRMRHVST [L22V] | 2.58
FSLKTFKRKSEVERAVKRMRHYST [L22Y] | 1.93
FSLKTFKRKSEVERAVKRMRHTST [L22T] | 3.17
FSLKTFKRKSEVERAVKRMRHQST [L22Q] | 2.62
FSLKTFKRKSEVERAVKRMRHRST [L22R] | 2.68
FSLKTFKRKSEVERAVKRMRHMST [L22M] | 2.57
FSLKTFKRKSEVERAVKRMRHNST [L22N] | 2.47
FSLKTFKRKSEVERAVKRMRHSST [L22S] | 1.92
